Patent US6468762B1, “High specificity homocysteinases” (AntiCancer, Inc., priority 1997, dated 2002)

Key:
[1] = system: Trichomonas vaginalis homocysteinase, isolated native enzyme (may reflect expression from more than one gene); conditions: native enzyme isolated from T. vaginalis; Lockwood et al., 1991; cited from earlier work
CSCC[C@H](N)C(=O)O = assay: Km of the novel homocysteinase expressed from the pAC2-1 clone (α-ketobutyrate/pyruvate assay, MBTH); type: biochemical, Trichomonas vaginalis; conditions: other: 37° C., pH 8.0, 100 mM phosphate buffer, 10 μM pyridoxal phosphate, 10 minutes, DL-homocysteine, L-cysteine or L-methionine separately, 10 μM to 1.6 mM
Description: (§1) In FIG. 1 (panels A and B) are depicted the amino acid sequences of two Trichomonas vaginalis homocysteinases, the first derived from a novel clone (pAC2-1) of the present invention, and the second, the enzyme derived from the known mgl1 gene (see also SEQ ID NOS: 10 and 12 for comparison of amino acids; SEQ ID NOS: 9 and 11 for comparison of encoding DNA's). It will be seen that pAC2-1 is characterized by the existence of three differences (mutations), compared to mgl1:
(§2) Phe to Leu at amino acid position 47,
(§3) Asp to Glu at amino acid position 172, and
(§4) Ser to Tyr at amino acid position 308.
(§5) In the first step of this assay, 1 ml volumes of 100 mM phosphate buffer pH 8.0, containing also 10 μM pyridoxal phosphate, […], respectively, were incubated, for 10 min at 37° C., with a sufficient sample (typically 50 μl) of crude cell extract (cells were sonicated, and the supernatant was recovered following centrifugation) to provide about 1-100 units of homocysteinase (“HCYase”) enzyme. The reactions were stopped by adding 0.1 ml of 50% TCA. The suspensions were then centrifuged using an Eppendorf centrifuge at 13 k rpm for 2 minutes. 0.5 ml samples of the supernatants were then added to 0.5 ml of 0.05% 3-methyl-2-benzothiazolinone hydrazone (“MBTH”) in 0.8 ml of 1M sodium acetate, pH 5.2 and incubated at 50° C. for 30 min. The amount of reaction products was determined for each sample, by spectrophotometry at OD320. The amount of protein was determined with a Bio-Rad 500-0006 kit (Bio-Rad, Richmond, Calif.) with bovine serum albumin as a standard. The enzyme specific activity was calculated as units/mg protein, with one unit of enzyme defined as the amount that catalyzes the formation of 1 μmol of α-ketobutyrate from homocysteine per minute. […]
(§6) The reaction was stopped by adding 0.1 ml of 50% TCA. […] The amount of reaction product was then determined by spectrophotometry at OD320. The Kcat (turnover number) values reported in FIG. 5, were determined from the calculation of Vmax values using standard kinetic expressions and plots.

N[C@@H](CCS)C(=O)O = assay: as above; type: biochemical, Trichomonas vaginalis; conditions: other: 37° C., pH 8.0, 100 mM phosphate buffer, 10 μM pyridoxal phosphate, 10 minutes, DL-homocysteine, L-cysteine or L-methionine separately, 10 μM to 1.6 mM
Description: as §1, §2, §3, §4, §5, §6

N[C@@H](CS)C(=O)O = assay: as above; type: biochemical, Trichomonas vaginalis; conditions: other: 37° C., pH 8.0, 100 mM phosphate buffer, 10 μM pyridoxal phosphate, 10 minutes, DL-homocysteine, L-cysteine or L-methionine separately, 10 μM to 1.6 mM
Description: as §1, §2, §3, §4, §5, §6

[2] = from the relative activity scale
Description: Homocysteinase enzymes of suitable catalytic activity for use as starting materials to obtain mutated forms can be derived from other Pseudomonas species, or from other bacteria, using routine screening procedures and assays that are recognized in the art.

[3] = Single enzyme assay detecting product hydrogen sulfide: contribution of homocysteine versus cysteine; type: biochemical
Description: According to the preferred practice of the invention, homocysteinases are provided wherein the relative activities of said enzymes toward homocysteine versus cysteine are such that, by detecting product hydrogen sulfide, the apparent concentration of homocysteine measured in a patient sample (which reflects also a contribution from cysteine) is less that about 150%, preferably less than about 110%, and most preferably less than about 102%, of the actual value thereof. In a further preferred example of the invention, for example using the novel Trichomonas homocysteinase expressed from pAC2-1, the apparent concentration of homocysteine measured in a single enzyme assay reflects no more than about a 1% false contribution from cysteine.
In general, useful diagnostic information can be obtained when the amount of produced hydrogen sulfide attributable to homocysteine is about one half of the total. […] Preferably, however the fraction of total hydrogen sulfide detected in an assay that is attributable to homocysteine is at least 90%, preferably 95%, more preferably 98%, and most preferably 99% or greater. The 99% level is readily obtained according to the practice of the invention, for example using the homocysteinase represented by SEQ ID NO: 10. […]

[4] = Homocysteinase specific activity, α-ketobutyrate assay; type: biochemical
Method: In the first step of this assay, 1 ml volumes of 100 mM phosphate buffer pH 8.0, containing also 10 μM pyridoxal phosphate, and different concentrations (25 μM-25 mM) of DL-homocysteine, or L-methionine, L-cysteine, respectively, were incubated, for 10 min at 37° C., with a sufficient sample (typically 50 μl) of crude cell extract (cells were sonicated, and the supernatant was recovered following centrifugation) to provide about 1-100 units of homocysteinase (“HCYase”) enzyme. The reactions were stopped by adding 0.1 ml of 50% TCA. The suspensions were then centrifuged using an Eppendorf centrifuge at 13 k rpm for 2 minutes. 0.5 ml samples of the supernatants were then added to 0.5 ml of 0.05% 3-methyl-2-benzothiazolinone hydrazone (“MBTH”) in 0.8 ml of 1M sodium acetate, pH 5.2 and incubated at 50° C. for 30 min. The amount of reaction products was determined for each sample, by spectrophotometry at OD320. The amount of protein was determined with a Bio-Rad 500-0006 kit (Bio-Rad, Richmond, Calif.) with bovine serum albumin as a standard. The enzyme specific activity was calculated as units/mg protein, with one unit of enzyme defined as the amount that catalyzes the formation of 1 μmol of α-ketobutyrate from homocysteine per minute. The assay procedure can, of course, also be used with purified homocysteinase samples that provide, for example, 1-100 units of enzyme per assay test.
Alternatively, an additional two stage strategy may be used. In the first stage, the partitioning material was DEAE Sepharose® FF, and loading and pre-washing were conducted with 20 mM sodium phosphate buffer, pH 7.2. Elution of the protein was accomplished using a linear gradient (8 ml/min) from 20 mM sodium phosphate buffer, pH 7.2 (solution A) to 20 mM sodium phosphate buffer, pH 7.2, 500 mM NaCl (solution B). In the second stage, the partitioning material was phenyl Sepharose® 6-FF, and loading and pre-washing were conducted with 0.6 M NH4SO4 in 20 mM sodium phosphate buffer, pH 7.2. Elution of the protein was accomplished using a linear gradient (5 ml/min) from 0.6 M NH4SO4, 20 mM sodium phosphate buffer, pH 7.2 (solution A) to 20 mM sodium phosphate buffer, pH 7.2, (solution B). The following purification results were obtained for this alternate procedure. The above-described cell-lysate contained 8400 units of homocysteinase at a specific activity (units/mg) of 5.2. Following completion of pre-column procedures, 6,300 units were recovered at a specific activity of 64 (about 75% yield). Upon completion of the DEAE Sepharose®-FF step (first column), 5,040 units were recovered at a specific activity of 172 (60% yield), while after the phenyl Sepharose® 6-FF step (second column), 4,200 units remained at a specific activity of 300 (50% yield).
An activity assay for the keto product of the α, γ or α,β-elimination (α-keto butryate for homocysteine) was carried out in a 1.5 ml Eppindorf tube using 1-ml. of 50 mM phosphate buffer pH 8.0 (also containing 10 μM pyridoxal phosphate and 20 mM homocysteine) for 10 minutes at 37° C., with varying amounts of enzyme. The reaction was stopped by adding 0.5 ml of 4.5% TCA. […]
The amount of reaction product was determined by spectrophotometry at OD335. […] The amount of protein was determined with the Lowry Reagent Kit (Sigma) with bovine serum albumin as a standard. The specific activity was calculated as units/mg protein, with one unit of enzyme defined as the amount that catalyzed the formation of 1 μmol of α-ketobutyrate/minute.

[5] = Relative activity toward homocysteine versus cysteine or methionine; type: biochemical; conditions: apparent activity
Method: In the first step of this assay, 1 ml volumes of 100 mM phosphate buffer pH 8.0, containing also 10 μM pyridoxal phosphate, and different concentrations (25 μM-25 mM) of DL-homocysteine, or L-methionine, L-cysteine, respectively, were incubated, for 10 min at 37° C., with a sufficient sample (typically 50 μl) of crude cell extract (cells were sonicated, and the supernatant was recovered following centrifugation) to provide about 1-100 units of homocysteinase (“HCYase”) enzyme. The reactions were stopped by adding 0.1 ml of 50% TCA. The suspensions were then centrifuged using an Eppendorf centrifuge at 13 k rpm for 2 minutes. 0.5 ml samples of the supernatants were then added to 0.5 ml of 0.05% 3-methyl-2-benzothiazolinone hydrazone (“MBTH”) in 0.8 ml of 1M sodium acetate, pH 5.2 and incubated at 50° C. for 30 min. The amount of reaction products was determined for each sample, by spectrophotometry at OD320. The amount of protein was determined with a Bio-Rad 500-0006 kit (Bio-Rad, Richmond, Calif.) with bovine serum albumin as a standard. The enzyme specific activity was calculated as units/mg protein, with one unit of enzyme defined as the amount that catalyzes the formation of 1 μmol of α-ketobutyrate from homocysteine per minute. The assay procedure can, of course, also be used with purified homocysteinase samples that provide, for example, 1-100 units of enzyme per assay test. […]

N[C@@H](CCS)C(=O)O (racemic) [homocysteine]
Km [1]: ~0.5 mM

Trichomonas vaginalis homocysteinase, pAC2-1 clone (recombinant in E. coli BL21 (DE3)), SEQ ID NO: 10; versus mgl1 (SEQ ID NO: 12): Phe47 to Leu, Asp172 to Glu, Ser308 to Tyr; N-terminal 6x His (Trichomonas vaginalis; D172E/F47L/S308Y)
Km (CSCC[C@H](N)C(=O)O): 3.1 mM
Km (N[C@@H](CCS)C(=O)O): 4.8 mM
Km (N[C@@H](CS)C(=O)O): 3.45 mM

L-methionine-alpha-deamino-gamma-mercaptomethane lyase [P. putida enzyme]
apparent preference for homocysteine over cysteine [2]: ~10 fold

B1: SEQ ID NO: 10: recombinant Trichomonas vaginalis homocysteinase from E. coli clone pAC2-1 (ATCC 98549), with 6 N-terminal histidine residues (protein)
chain: MHHHHHHMSHERMTPATACIHANPQKDQFGAAIPPIYQTSTFVFDNCQQGGNRLAGQESGYIYTRLGNPTVSNLEGKIAFLEKTEACVATSSGMGAIAATVLTILKAGDHLISDECLYGCTHALFEHALTKFGIQVDFINTAIPGEVKKHMKPNTKIVYFETPANPTLKIIDMERVCKEAHSQEGVLVIADNTFCSPMITNPVDFGVDVVVHSATKYINGHTDVVAGLICGKADLLQQIRMVGIKDITGSVISPHDAWLITRGLSTLNIRMKAESENAMKVAEYLKSHPAVEKVYYPGFEDHEGHDIAKKQMRMYGSMITFILKSGFEGAKKLLDNLKLITLAVSLGGCESLIQHPASMTHAVVPKEEREAAGITDGMIRLSVGIEDADELIADFKQGLDALL
modifications: N-terminal His6 tag
notes: recombinant Trichomonas vaginalis homocysteinase from E. coli clone pAC2-1 (ATCC 98549), with 6 N-terminal histidine residues
fraction of total hydrogen sulfide detected that is attributable to homocysteine ([3]; single enzyme assay of patient samples): ≥ 99%
false contribution from cysteine to apparent homocysteine concentration ([3]; single enzyme assay, product hydrogen sulfide detected): ≤ 1%
specific activity ([4]; after DEAE Sepharose-FF step): 172 units/mg
specific activity ([4]; after phenyl Sepharose 6-FF step): 300 units/mg
specific activity ([4]; after pre-column procedures): 64 units/mg
specific activity ([4]; cell-lysate): 5.2 units/mg
specific activity ([4]; commercial product HYase from AntiCancer, Inc): 40 units/mg
activity for homocysteine relative to cysteine and methionine [5]: at least 100 fold
